19 molecules from patent publication US20250339569A1 (3B PHARMACEUTICALS, published 2025) can be followed below.

Sequences and labels used below:
B1: 3BP-3427 (peptide)
peptide: Ac-K(DOTA)VYCE[dP]DWLTWAC-NH2
modifications: linker 4-13 via mXylylene
SMILES: CC(=O)N[C@@H](CCCCNC(=O)CN1CCN(CC(=O)O)CCN(CC(=O)O)CCN(CC(=O)O)CC1)C(=O)N[C@H](C(=O)N[C@@H](Cc1ccc(O)cc1)C(=O)N[C@H]1CSCc2cccc(c2)CSC[C@@H](C(N)=O)NC(=O)[C@H](C)NC(=O)[C@H](Cc2c[nH]c3ccccc23)NC(=O)[C@H]([C@@H](C)O)NC(=O)[C@H](CC(C)C)NC(=O)[C@H](Cc2c[nH]c3ccccc23)NC(=O)[C@H](CC(=O)O)NC(=O)[C@H]2CCCN2C(=O)[C@H](CCC(=O)O)NC1=O)C(C)C
notes: also called Ac-Lys(DOTA)-Val-Tyr-[Cys(3MeBn)-Glu-pro-Asp-Trp-Leu-Thr-Trp-Ala-Cys]-NH2
B2: 3BP-3840 (peptide)
peptide: Ac-K(DOTA)VYCE[dP]DWLTWSC-NH2
modifications: linker 4-13 via 3MeBn
notes: also called Ac-Lys(DOTA)-Val-Tyr-[Cys(3MeBn)-Glu-pro-Asp-Trp-Leu-Thr-Trp-Ser-Cys]-NH2
B3: 3BP-2837 (peptide)
peptide: Ac-VYCEGDWLTWQC-NH2
modifications: linker 3-12 via mXylylene
SMILES: CC(=O)N[C@H](C(=O)N[C@@H](Cc1ccc(O)cc1)C(=O)N[C@H]1CSCc2cccc(c2)CSC[C@@H](C(N)=O)NC(=O)[C@H](CCC(N)=O)NC(=O)[C@H](Cc2c[nH]c3ccccc23)NC(=O)[C@H]([C@@H](C)O)NC(=O)[C@H](CC(C)C)NC(=O)[C@H](Cc2c[nH]c3ccccc23)NC(=O)[C@H](CC(=O)O)NC(=O)CNC(=O)[C@H](CCC(=O)O)NC1=O)C(C)C
B4: 3BP-3313 (peptide)
peptide: Ac-VYCE[Sar]DWLTWAC-NH2
modifications: linker 3-12 via mXylylene
SMILES: CC(=O)N[C@H](C(=O)N[C@@H](Cc1ccc(O)cc1)C(=O)N[C@H]1CSCc2cccc(c2)CSC[C@@H](C(N)=O)NC(=O)[C@H](C)NC(=O)[C@H](Cc2c[nH]c3ccccc23)NC(=O)[C@H]([C@@H](C)O)NC(=O)[C@H](CC(C)C)NC(=O)[C@H](Cc2c[nH]c3ccccc23)NC(=O)[C@H](CC(=O)O)NC(=O)CN(C)C(=O)[C@H](CCC(=O)O)NC1=O)C(C)C
notes: also called Ac-Val-Tyr-[Cys(3MeBn)-Glu-Nmg-Asp-Trp-Leu-Thr-Trp-Ala-Cys]-NH2
B5: 3BP-3429 (peptide)
peptide: {DOTA-3Amb}-VYCE[dP]DWLTWAC-NH2
modifications: linker 3-12 via mXylylene
SMILES: CC(C)C[C@@H]1NC(=O)[C@H](Cc2c[nH]c3ccccc23)NC(=O)[C@H](CC(=O)O)NC(=O)[C@H]2CCCN2C(=O)[C@H](CCC(=O)O)NC(=O)[C@@H](NC(=O)[C@H](Cc2ccc(O)cc2)NC(=O)[C@@H](NC(=O)c2cccc(CNC(=O)CN3CCN(CC(=O)O)CCN(CC(=O)O)CCN(CC(=O)O)CC3)c2)C(C)C)CSCc2cccc(c2)CSC[C@@H](C(N)=O)NC(=O)[C@H](C)NC(=O)[C@H](Cc2c[nH]c3ccccc23)NC(=O)[C@H]([C@@H](C)O)NC1=O
notes: also called DOTA-Mamb-Val-Tyr-[Cys(3MeBn)-Glu-pro-Asp-Trp-Leu-Thr-Trp-Ala-Cys]-NH2
B6: 3BP-3058 (peptide)
peptide: Ac-VYCEGDWLTWAC-NH2
modifications: linker 3-12 via mXylylene
SMILES: CC(=O)N[C@H](C(=O)N[C@@H](Cc1ccc(O)cc1)C(=O)N[C@H]1CSCc2cccc(c2)CSC[C@@H](C(N)=O)NC(=O)[C@H](C)NC(=O)[C@H](Cc2c[nH]c3ccccc23)NC(=O)[C@H]([C@@H](C)O)NC(=O)[C@H](CC(C)C)NC(=O)[C@H](Cc2c[nH]c3ccccc23)NC(=O)[C@H](CC(=O)O)NC(=O)CNC(=O)[C@H](CCC(=O)O)NC1=O)C(C)C
B7: 3BP-3304 (peptide)
peptide: Ac-VYCE[Sar]DWLTWGC-NH2
modifications: linker 3-12 via mXylylene
SMILES: CC(=O)N[C@H](C(=O)N[C@@H](Cc1ccc(O)cc1)C(=O)N[C@H]1CSCc2cccc(c2)CSC[C@@H](C(N)=O)NC(=O)CNC(=O)[C@H](Cc2c[nH]c3ccccc23)NC(=O)[C@H]([C@@H](C)O)NC(=O)[C@H](CC(C)C)NC(=O)[C@H](Cc2c[nH]c3ccccc23)NC(=O)[C@H](CC(=O)O)NC(=O)CN(C)C(=O)[C@H](CCC(=O)O)NC1=O)C(C)C
notes: also called Ac-Val-Tyr-[Cys(3MeBn)-Glu-Nmg-Asp-Trp-Leu-Thr-Trp-Gly-Cys]-NH2
B8: 3BP-3284 (peptide)
peptide: Ac-VYCE[dA]DWLTWGC-NH2
modifications: linker 3-12 via mXylylene
SMILES: CC(=O)N[C@H](C(=O)N[C@@H](Cc1ccc(O)cc1)C(=O)N[C@H]1CSCc2cccc(c2)CSC[C@@H](C(N)=O)NC(=O)CNC(=O)[C@H](Cc2c[nH]c3ccccc23)NC(=O)[C@H]([C@@H](C)O)NC(=O)[C@H](CC(C)C)NC(=O)[C@H](Cc2c[nH]c3ccccc23)NC(=O)[C@H](CC(=O)O)NC(=O)[C@@H](C)NC(=O)[C@H](CCC(=O)O)NC1=O)C(C)C
notes: also called Ac-Val-Tyr-[Cys(3MeBn)-Glu-ala-Asp-Trp-Leu-Thr-Trp-Gly-Cys]-NH2
B9: 3BP-3279 (peptide)
peptide: {DOTA-Ttds″}-VYCE[dA]DWLTWAC-NH2
modifications: linker 3-12 via mXylylene; not fully specified
notes: also called DOTA-Ttds-Val-Tyr-[Cys(3MeBn)-Glu-ala-Asp-Trp-Leu-Thr-Trp-Ala-Cys]-NH2
B10: 3BP-3307 (peptide)
peptide: Ac-VYCE[Sar]DWLGWQC-NH2
modifications: linker 3-12 via mXylylene
SMILES: CC(=O)N[C@H](C(=O)N[C@@H](Cc1ccc(O)cc1)C(=O)N[C@H]1CSCc2cccc(c2)CSC[C@@H](C(N)=O)NC(=O)[C@H](CCC(N)=O)NC(=O)[C@H](Cc2c[nH]c3ccccc23)NC(=O)CNC(=O)[C@H](CC(C)C)NC(=O)[C@H](Cc2c[nH]c3ccccc23)NC(=O)[C@H](CC(=O)O)NC(=O)CN(C)C(=O)[C@H](CCC(=O)O)NC1=O)C(C)C
notes: also called Ac-Val-Tyr-[Cys(3MeBn)-Glu-Nmg-Asp-Trp-Leu-Gly-Trp-Gln-Cys]-NH2
B11: 3BP-3052 (peptide)
peptide: Ac-VYCAGDWLTWQC-NH2
modifications: linker 3-12 via mXylylene
SMILES: CC(=O)N[C@H](C(=O)N[C@@H](Cc1ccc(O)cc1)C(=O)N[C@H]1CSCc2cccc(c2)CSC[C@@H](C(N)=O)NC(=O)[C@H](CCC(N)=O)NC(=O)[C@H](Cc2c[nH]c3ccccc23)NC(=O)[C@H]([C@@H](C)O)NC(=O)[C@H](CC(C)C)NC(=O)[C@H](Cc2c[nH]c3ccccc23)NC(=O)[C@H](CC(=O)O)NC(=O)CNC(=O)[C@H](C)NC1=O)C(C)C
B12: 3BP-3282 (peptide)
peptide: Ac-VYCE[dP]DWLTWAC-NH2
modifications: linker 3-12 via mXylylene
SMILES: CC(=O)N[C@H](C(=O)N[C@@H](Cc1ccc(O)cc1)C(=O)N[C@H]1CSCc2cccc(c2)CSC[C@@H](C(N)=O)NC(=O)[C@H](C)NC(=O)[C@H](Cc2c[nH]c3ccccc23)NC(=O)[C@H]([C@@H](C)O)NC(=O)[C@H](CC(C)C)NC(=O)[C@H](Cc2c[nH]c3ccccc23)NC(=O)[C@H](CC(=O)O)NC(=O)[C@H]2CCCN2C(=O)[C@H](CCC(=O)O)NC1=O)C(C)C
notes: also called Ac-Val-Tyr-[Cys(3MeBn)-Glu-pro-Asp-Trp-Leu-Thr-Trp-Ala-Cys]-NH2
B13: 3BP-3046 (peptide)
peptide: Ac-VYCE[dA]DWLTWQC-NH2
modifications: linker 3-12 via mXylylene
SMILES: CC(=O)N[C@H](C(=O)N[C@@H](Cc1ccc(O)cc1)C(=O)N[C@H]1CSCc2cccc(c2)CSC[C@@H](C(N)=O)NC(=O)[C@H](CCC(N)=O)NC(=O)[C@H](Cc2c[nH]c3ccccc23)NC(=O)[C@H]([C@@H](C)O)NC(=O)[C@H](CC(C)C)NC(=O)[C@H](Cc2c[nH]c3ccccc23)NC(=O)[C@H](CC(=O)O)NC(=O)[C@@H](C)NC(=O)[C@H](CCC(=O)O)NC1=O)C(C)C
notes: also called Ac-Val-Tyr-[Cys(3MeBn)-Glu-ala-Asp-Trp-Leu-Thr-Trp-Gln-Cys]-NH2
B14: 3BP-3270 (peptide)
peptide: {DOTA-Ttds(3)}-VYCE[dA]DWLTWQC-NH2
modifications: linker 3-12 via mXylylene
notes: also called DOTA-Ttds-Val-Tyr-[Cys(3MeBn)-Glu-ala-Asp-Trp-Leu-Thr-Trp-Gln-Cys]-NH2
B15: 3BP-3281 (peptide)
peptide: Ac-VYCE[dNMeA]DWLTWAC-NH2
modifications: linker 3-12 via mXylylene
SMILES: CC(=O)N[C@H](C(=O)N[C@@H](Cc1ccc(O)cc1)C(=O)N[C@H]1CSCc2cccc(c2)CSC[C@@H](C(N)=O)NC(=O)[C@H](C)NC(=O)[C@H](Cc2c[nH]c3ccccc23)NC(=O)[C@H]([C@@H](C)O)NC(=O)[C@H](CC(C)C)NC(=O)[C@H](Cc2c[nH]c3ccccc23)NC(=O)[C@H](CC(=O)O)NC(=O)[C@@H](C)N(C)C(=O)[C@H](CCC(=O)O)NC1=O)C(C)C
notes: also called Ac-Val-Tyr-[Cys(3MeBn)-Glu-nma-Asp-Trp-Leu-Thr-Trp-Ala-Cys]-NH2
B16: 3BP-3430 (peptide)
peptide: {DOTA-4Amc}-VYCE[dP]DWLTWAC-NH2
modifications: linker 3-12 via mXylylene; reading uncertain
notes: also called DOTA-4Amc-Val-Tyr-[Cys(3MeBn)-Glu-pro-Asp-Trp-Leu-Thr-Trp-Ala-Cys]-NH2
B17: 3BP-3280 (peptide)
peptide: Ac-VYCE[dA]DWLTWAC-NH2
modifications: linker 3-12 via mXylylene
SMILES: CC(=O)N[C@H](C(=O)N[C@@H](Cc1ccc(O)cc1)C(=O)N[C@H]1CSCc2cccc(c2)CSC[C@@H](C(N)=O)NC(=O)[C@H](C)NC(=O)[C@H](Cc2c[nH]c3ccccc23)NC(=O)[C@H]([C@@H](C)O)NC(=O)[C@H](CC(C)C)NC(=O)[C@H](Cc2c[nH]c3ccccc23)NC(=O)[C@H](CC(=O)O)NC(=O)[C@@H](C)NC(=O)[C@H](CCC(=O)O)NC1=O)C(C)C
notes: also called Ac-Val-Tyr-[Cys(3MeBn)-Glu-ala-Asp-Trp-Leu-Thr-Trp-Ala-Cys]-NH2
B18: 3BP-3428 (peptide)
peptide: Ac-K([AEEA-DOTA])VYCE[dP]DWLTWAC-NH2
modifications: linker 4-13 via mXylylene
notes: also called Ac-Lys(DOTA-O2Oc)-Val-Tyr-[Cys(3MeBn)-Glu-pro-Asp-Trp-Leu-Thr-Trp-Ala-Cys]-NH2

Starred links: 1 amine or outer side, 2 acyl side, 3 side chain; linkers in the order of their positions; H or OH if unused. Positions of bridges follow the written chain, without caps; N, C: chain ends. Non-standard residues stand in square brackets, D forms with d. Groups on a side chain read outwards from the residue. Primed or numbered codes have the meaning given here. *: point of attachment. DOTA = O=C(O)CN1CCN(CC(=O)O)CCN(CC(=O)*)CCN(CC(=O)O)CC1; Ttds(3) = NCCCOCCOCCOCCCNC(=O)CCC(=O)*; mXylylene = c1cc(C[*:1])cc(C[*:2])c1; 3Amb = NCc1cccc(C(=O)O)c1; dNMeA = CN[C@H](C)C(=O)O; 4Amc = not defined here; AEEA = NCCOCCOCC(=O)O; Ttds″ = Ttds spacer; Sar = CNCC(=O)O

The assay deals with human carbonic anhydrase 9 (CAIX) (human, UniProt Q16790 38-459). The experiment in a line: FACS competition on HT-29 cells against tracer 3BP-2776; pIC50 category A = pIC50 >8.0. The protocol: CAIX-expressing human HT-29 colorectal cancer cells (DSMZ, RRID: CVCL_0320) were cultured in McCoys's 5A modified medium (Biochrom, #F1015) including 10% fetal calf serum (FCS), 2 mM L-glutamine, 100 U/ml penicillin and 100 μg/mL streptomycin. Cells were detached with Accutase (Biolegend, #423201) and washed in FACS buffer (PBS including 1% FCS). Cells were diluted in FACS buffer to a final concentration of 500.000 cells per ml. 200 μL of the cell suspension were transferred to a u-shaped non-binding 96-well plate (Greiner) and cells were washed in ice-cold FACS buffer.
When biotinylated compounds were used an additional incubation step with 1 μg/mL APC-Streptavidin (Miltenyi; #130-106-791) in 50 μL FACS buffer for 30 minutes on ice was performed.
Cells were washed twice with ice-cold FACS buffer and analyzed in an Attune NxT flow cytometer (Thermo Fisher). Median fluorescence intensities (MFI) of the APC/Cy5-channel were calculated by Attune NxT software.
B1: the pIC50 was greater than 8 pic50. For B2, the pIC50 was greater than 8 pic50.

The molecule B3 showed a pIC50 greater than 8 pic50. Under B4 stands greater than 8 pic50; under B5, greater than 8 pic50.

On to B6, for which the pIC50 is greater than 8 pic50. The same measure for B7: greater than 8 pic50; for B8: greater than 8 pic50; for B9: greater than 8 pic50. Under {DOTA-Ttds″}-VYCEGDWLTWAC-NH2 (linker 3-12 via mXylylene; not fully specified) [3BP-3272] stands greater than 8 pic50. Under B10 stands greater than 8 pic50; under B11, greater than 8 pic50.

B12 yielded a pIC50 greater than 8 pic50. Under B13 stands greater than 8 pic50; under B14, greater than 8 pic50; under B15, greater than 8 pic50. For the molecule B16, the pIC50 was greater than 8 pic50.

The molecule B17 came in with a pIC50 greater than 8 pic50. Under B18 stands greater than 8 pic50.
